Data reported in patent publication US20210308031.

How the values were obtained:
[1] = molecular target: Unhydroxylated collagen purified from strain PP434 (vector MMV411)
[2] = molecular target: (Pro-Pro-Gly)10 peptide model substrate

B1: P4HA and P4HB with the His tag, expressed separately (bidirectional), encoded by plasmid MMV503 (protein)
chain 1: HPGFFTSIGQMTDLIHTEKDLVTSLKDYIKAEEDKLEQIKKWAEKLDRLTSTATKDPEGFVGHPVNAFKLMKRLNTEWSELENLVLKDMSDGFISNLTIQRQYFPNDEDQVGAAKALLRLQDTYNLDTDTISKGDLPGVKHKSFLTVEDCFELGKVAYTEADYYHTELWMEQALRQLDEGEVSTVDKVSVLDYLSYAVYQQGDLDKALLLTKKLLELDPEHQRANGNLKYFEYIMAKEKDANKSSSDDQSDQKTTLKKKGAAVDYLPERQKYEMLCRGEGIKMTPRRQKKLFCRYHDGNRNPKFILAPAKQEDEWDKPRIIRFHDIISDAEIEVVKDLAKPRLRRATISNPITGDLETVHYRISKSAWLSGYENPVVSRINMRIQDLTGLDVSTAEELQVANYGVGGQYEPHFDFARKDEPDAFKELGTGNRIATWLFYMSDVLAGGATVFPEVGASVWPKKGTAVFWYNLFASGEGDYSTRHAACPVLVGNKWVSNKWLHERGQEFRRPCTLSELE
chain 2: APDEEDHVLVLHKGNFDEALAAHKYLLVEFYAPWCGHCKALAPEYAKAAGKLKAEGSEIRLAKVDATEESDLAQQYGVRGYPTIKFFKNGDTASPKEYTAGREADDIVNWLKKRTGPAASTLSDGAAAEALVESSEVAVIGFFKDMESDSAKQFFLAAEVIDDIPFGITSNSDVFSKYQLDKDGVVLFKKFDEGRNNFEGEVTKEKLLDFIKHNQLPLVIEFTEQTAPKIFGGEIKTHILLFLPKSVSDYEGKLSNFKKAAESFKGKILFIFIDSDHTDNQRILEFFGLKKEECPAVRLITLEEEMTKYKPESDELTAEKITEFCHRFLEGKIKPHLMSQELPDDWDKQPVKVLVGKNFEEVAFDEKKNVFVEFYAPWCGHCKQLAPIWDKLGETYKDHENIVIAKMDSTANEVEAVKVHSFPTLKFFPASADRTVIDYNGERTLDGFKKFLESGGQDGAGDDDDLEDLEEAEEPDLEEDDDQKAVKDELHHHHHH
In the case of B1, the “% Hydroxyproline (in vitro hydroxylation, 32 C, 1 hour); enzyme from strain PP636” value [1] is reported as 0.9% and the “alpha-ketoglutaric acid consumption over time” value [2] is reported as “The P4HA and P4HB enzymatic activity from PP548 were confirmed by the same assay as above”.
